This note sets out measurements from patent US20180148718.

What is called Kd is the free concentration of one partner at which half of the binding sites on the other are occupied at equilibrium, for simple one-to-one binding.

The data set addresses Hsp90alpha (UniProt P07900). Nature of the data set: FP filter. To be noted: 5-10-5 gapmer, cEt wings 1-5 and 16-20, 2'-deoxy gap, all C 5mC, full PS; nitrocellulose double-filter binding, printed as binding constant.

On to “CTGCTAGCCTCTGGATTTGA [Isis 586183 (PS/cEt)]”, for which the Kd is 19.7 nM.
